Laboratory results as given in FireProtDB (doi:10.1111/j.1432-1033.1995.tb20520.x).
Several values for one entry are separate records, joined by “and”; a condition that tells them apart may be missing. Identical values can stand only once.

Conditions: Paenibacillus macerans, pH 6, Sodium cacodylate 2 mM, reversible: yes, whole UniProt chain shown; for unfolding free energy: 25 °C, GdnHCl; for heat capacity change of unfolding / unfolding enthalpy (van 't Hoff) / Tm / unfolding enthalpy (calorimetric): Thermal

B1: Beta-glucanase wild type, P23904 (protein)
chain: MKKKSCFTLVTTFAFSLIFSVSALAGSVFWEPLSYFNRSTWEKADGYSNGGVFNCTWRANNVNFTNDGKLKLGLTSSAYNKFDCAEYRSTNIYGYGLYEVSMKPAKNTGIVSSFFTYTGPAHGTQWDEIDIEFLGKDTTKVQFNYYTNGVGGHEKVISLGFDASKGFHTYAFDWQPGYIKWYVDGVLKHTATANIPSTPGKIMMNLWNGTGVDDWLGSYNGANPLYAEYDWVKYTSN
With B1 the unfolding free energy (CD) was 10.3 kcal/mol and 9.01 kcal/mol and 8.6 kcal/mol, the unfolding free energy (DSC, CaCl2 1 mM) was 10.4 kcal/mol and 10.5 kcal/mol and the unfolding free energy (DSC) was 10.8 kcal/mol and 9.89 kcal/mol and 8.41 kcal/mol. For the same protein, the “heat capacity change of unfolding” value (CD, CaCl2 1 mM) was 2.2 kcal/mol/K and 1.79 kcal/mol/K, the “unfolding enthalpy (van 't Hoff)” value (CD, CaCl2 1 mM) was 162 kcal/mol and 169 kcal/mol and 183 kcal/mol and the Tm (CD) was 51.2 °C and 47.7 °C and 49.7 °C. The “heat capacity change of unfolding” value (CD) was 2.01 kcal/mol/K and 1.6 kcal/mol/K and 1.7 kcal/mol/K, the “unfolding enthalpy (van 't Hoff)” value (CD) was 154 kcal/mol and 145 kcal/mol and 135 kcal/mol and the “heat capacity change of unfolding” value (DSC, CaCl2 1 mM) was 2.2 kcal/mol/K and 1.79 kcal/mol/K and 2.44 kcal/mol/K. For the same protein, the “unfolding enthalpy (calorimetric)” value (DSC, CaCl2 1 mM) was 78.2 kcal/mol and 156 kcal/mol and 87 kcal/mol, the Tm (DSC) was 51.2 °C and 49.3 °C and 46.6 °C and the “heat capacity change of unfolding” value (DSC) was 2.01 kcal/mol/K and 1.6 kcal/mol/K and 1.7 kcal/mol/K. The “unfolding enthalpy (calorimetric)” value (DSC) was 161 kcal/mol and 146 kcal/mol and 143 kcal/mol.
